# Assay results reported in patent US20140348832A1 (Sanofi, published 2014).
# B1: BsB, bispecific fusion protein CD80wa-LAG-3-Fc (mouse CD80w88a(aa1-235)-G9-Lag-3(aa25-260)-IgG2a(aa241-474)) (Fc fusion)
# chain: VDEQLSKSVKDKVLLPCRYNSPHEDESEDRIYWQKHDKVVLSVIAGKLKVAPEYKNRTLYDNTTYSLIILGLVLSDRGTYSCVVQKKERGTYEVKHLALVKLSIKADFSTPNITESGNPSADTKRITCFASGGFPKPRFSWLENGRELPGINTTISQDPESELYTISSQLDFNTTRNHTIKCLIKYGDAHVSEDFTWGGGGGGGGGGPGKELPVVWAQEGAPVHLPCSLKSPNLDPNFLRRGGVIWQHQPDSGQPTPIPALDLHQGMPSPRQPAPGRYTVLSVAPGGLRSGRQPLHPHVQLEERGLQRGDFSLWLRPALRTDAGEYHATVRLPNRALSCSLRLRVGQASMIASPSGVLKLSDWVLLNCSFSRPDRPVSVHWFQGQNRVPVYNSPRHFLAETFLLLPQVSPLDSGTWGCVLTYRDGFNVSITYNLKVLGLEPVAPRGPTIKPCPPCKCPAPNLLGGPSVFIFPPKIKDVLMISLSPMVTCVVVDVSEDDPDVQISWFVNNVEVLTAQTQTHREDYNSTLRVVSALPIQHQDWMSGKEFKCKVNNKALPAPIERTISKPKGSVRAPQVYVLPPPEEEMTKKQVTLTCMVTDFMPEDIYVEWTNNGKTELNYKNTEPVLDSDGSYFMYSKLRVEKKNWVERNSYSCSVVHEGLHNHHTTKSFSRTPGK
# Tests used:
# [1] = biological target: MHCII (pMHCII) on mouse antigen presenting cells; experiment: cell-based or functional assay
# [2] = biological target: mouse cytotoxic T lymphocyte associated antigen-4 (CTLA-4) on activated T cells (mouse, UniProt P09793 36-223); experiment: cell-based or functional assay
binder,measurement,setting,value
B1,EC50 of BsB for inducing Tregs in vitro,[1],~100 nM
same,potency of BsB at inducing the production of Tregs (EC50),[1],> 100 nM
same,EC50 of BsB for inducing Tregs in vitro,[2],~100 nM
same,potency of BsB at inducing the production of Tregs (EC50),[2],> 100 nM
